This is an account of results in US20160038588A1 (Amgen, published 2016).

Assay [1] deals with T1, recombinant mature myostatin (human, produced in E. coli) (human, UniProt O14793 267-375).
T1 sequence (looked up): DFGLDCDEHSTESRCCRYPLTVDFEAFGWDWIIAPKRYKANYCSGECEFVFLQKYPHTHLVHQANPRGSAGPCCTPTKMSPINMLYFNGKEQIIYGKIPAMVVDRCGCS
The experiment in a line: cell-based or functional assay.

Assay [2] addresses T1, recombinant mature myostatin (human, …). Kind of assay: cell-based or functional assay. The source holds these as a separate data set.

Where no end group is shown, it is not given here.

Regarding QGHCTRWPWMCPPY (also: cysteine-constrained, bridge type not given here) [TN8-19 peptide], the “IC50 (read off the curve)” value in assay [1] was roughly 20 µM.

B1: recombinant human activin receptor IIB/Fc chimera (R&D Systems) (Fc fusion, UniProt Q13705 19-134, looked up, not shown: a dimerising Fc or GST)
chain: SGRGEAETRECIYYNANWELERTNQSGLERCEGEQDKRLHCYASWRNSSGTIELVKKGCWLDDFNCYDRQECVATEENPQVYFCCCEGNFCNERFTHLPEAGGPEVTYEPPPTAPT
B1: in assay [2], the “IC50, C2C12 pMARE-luc assay” value is roughly 83 nM.
